# Experimental data: patent EP2019137A1
# Target: wild-type SPW1 protein (SUPERWOMAN1, AP3-type class-B MADS-box protein of rice), M, I and K domains, yeast two-hybrid construct (rice (Oryza sativa))
# Experiment: yeast two-hybrid, LacZ reporter
substance,measurement,value
"V45T mutant-type protein of OsMADS2, M, I and K domains, yeast two-hybrid construct",binding relative to OsMADS2wt with SPW1^wt (fold of OsMADS2wt-SPW1^wt binding),0.5
